Data as given in patent publication US20240287501A1 (VIB VZW, published 2024).
Where a chain is given by its changes, count along the chain named.

B1: CA17793 (VHH)
VHH: QVQLVESGGGLVRPGGSLRLSCAASGITFSSYTMGWYRQAPGKQRELVATITTGGSTNYAVSAKGRFTISRDNANNRVTLQMNSLNSEDTAAYYCHSRFAYGPLEYWGQGTQVTVSS
notes: C-terminal 6xHis-EPEA tag is part of the entry
B2: CA17792 (VHH)
VHH: QVQLVESGGGLVQPGGSLRLSCAASGISFGSYTMAWYRQAPGKQRDMVADITTGGRTNYADSVKGRFTISRDNAKNTVYLQMNSLKSEDTAVYYCKADFAYGRDLTYWGQGTQVTVSS
notes: as for B1
B3: CA17794 (VHH)
VHH: QVQLVESGGGLVQPGGSLRLSCTASGVTFSRYAMSWYRQAPGKERELVATITGAGSSTNYEDSVKGRFTISRDNAKNTVYLQMNSLKPEDTAVYYCYADHYGLGYLDYWGQGTQVTVSS
notes: as for B1
B4: CA17795 (VHH)
VHH: QVQLVESGGGLVQPGGSLRLSCAASGSFFNINAMAWYRQAPGKQRELVAVIASSGRTNYADSVSGRFTISRDNAKNTVYLQMNSLKPEDTAVYYCNSKIRQASWNLVLSDHWGQGTQVTVSS
notes: as for B1
B5: CA17675 (VHH)
VHH: QVQLVESGGKLVPAGDSLRLSCAASGRTFSDYIIGWFRQVSGKERKFVAAIRRSDGETVYTDSVKGRFTISRDNAKNTVYLQMNSLKPEDTAVYYCYLNNRNSRGSMDAYWGQGTQVTVSS
notes: as for B1
B6: CA17791 (VHH)
VHH: QVQLVESGGGLVQPGGSLRLSCAASGITFSSYAMGWYRQAPGKERELVARITSGGSTDYAVSVKGRFTISRDNANNLVYLQMNSLNSEDTAVYYCHSQYSYGPLEYWGQGTQVTVSS
notes: as for B1
B7: CA17796 (VHH)
VHH: B6 VHH with T28S, S30H, E44Q, A49S, R50T, S53T, N75K, L77T, S84N, S100A
notes: as for B1
B8: CA17517 (VHH)
VHH: QVQLVESGGGLVQPGGSLRLSCAASGRTFSNYIMGWFRQPPGKEREFVATISWSGSDTVYASSVKGRFTISRDNAKSTVYLQMNSLKPEDTAIYYCAAKDAVGYWSSDVYSEAKEYDYWGQGTQVTVSS
notes: as for B1
B9: CA17674 (VHH)
VHH: QVQLVESGGGLVQPGDFLRLSCAASDRTFSNYIMGWFRQAPGKEREFVATISWSGSDTVYASSVKGRFTISRDNAKSTVYLKMNSLKPEDTAIYYCAAKYAVGYWGNDVASEAKDYNYWGQGTQVTVSS
notes: as for B1
B10: CA17520 (VHH)
VHH: QVQLVESGGGLVQTGGSLRLSCAASVRTFSNYIMGWFRQAPGKEREFVATISWSGINTYYADNVKGRFTISRDNARNTVYLQMNSLKPEDTAIYYCAAKSAVGYYHDSYASRAEEYDYWGQGTQVTVSS
notes: as for B1
B11: CA8780 (VHH)
VHH: QVQLQESGGGLVQPGGSLRLSCAPSGPFSPNSMGWYRQAPGKQRELVAVMTIDGRTNYQDSVKGRFTISRDYVKNTAYLQMNNLKPDDTAVYICNAETRGFMHWGQGTQVTVSS
notes: Control Nanobody; C-terminal 6xHis-EPEA tag is part of the entry; also called irrelevant Nb
B12: CA17519 (VHH)
VHH: QVQLVESGGGLVQPGGSLRLSCAASGRIFSIYVMGWYRQAPGKQRELVAQITNSGRTKFADSVKGRFTISRDNAKNMVYLQMNSLKAEDTAVYYCYADLDWYGGTANNDFWGQGTQVTVSS
notes: as for B1
B13: CA17563 (VHH)
VHH: QVQLVESGGGTVQAGDSLRLSCSASGRALTPYTMAWFRQPPGKERELVAAIGRTGSGTRYAEAVKDRFTISRDNDKQELYLQMNSLKPEDTAVYYCAANRRLTTSLEYDYWGQGTQVTVSS
notes: as for B1
B14: CA17518 (VHH)
VHH: QVQLVESGGGLVQAGGSLRLSCVTSGFTFDDYAIGWFRQAPGKEREGVSSISSSDGTTYYADSVKGRFTISSDNAKNTVYLQMNNLKPEDTAVYYCAADWAAWPSIRVGVGVPAYEYDYWGQGTQVTVSS
notes: as for B1
B15: CA17673 (VHH)
VHH: QVQLVESGGGLVQAGGSLRLSCAASARAFMNYIMGWFRQAPGKEREFVATISWSGVTTDYADNVKGRFTISRDNAKNTVSLQMNSLKPEDTAIYYCAAKSAVGYYSDIYNSRAKEYDYWGQGTQVTVSS
notes: as for B1
B16: CA17676 (VHH)
VHH: QVQLVESGGGLVQAGGSLRLSCAGSGGTFSAYTMGWFRQGLGEERELVACISRSGASTFYTDPVKGRFTISRDNDKNTVYLQMNNLKPEDTAVYYCAADWTVIDEITEQRSKHQTSYDYWGQGTQVTVSS
notes: as for B1
B17: CA17562 (VHH)
VHH: QVQLVESGGGLVQPGGSLRLSCAASGFDFSRNRLNWHRQAPGKQRELVATIGSNGPRYADSVKDRFTISRDNEKNTVYLEMNSVKPEDTAVYYCAARGYWGQGTQVTVSS
notes: as for B1

Experiments:
[1] = target: T1, PGI1 (native, un-tagged, from EBY100 lysate) (Saccharomyces cerevisiae, UniProt P12709 2-554); test: co-immunoprecipitation, Nb coupled to NHS-agarose beads, EBY100 yeast lysate (native target), SDS-PAGE
T1 construct: mature; Endogenous untagged protein, 61 kDa band; also called YBR196C; endogenous PGI1
Method: (§1) Each PGI1-specific Nanobody was covalently linked to NHS-agarose beads. The beads that were functionalized with these PGI1-specific Nanobodies were incubated for an hour at 4° C. on a rotating device with either an EBY100 lysate or the lysate of the engineered Yeast strain expressing PGI1 (Yeast GFP fusion collection reference: GFP(+)12, H11) as a GFP-tagged protein. After washing, these beads analyzed on SDS-PAGE (FIG. 14A). Separated proteins were transferred to a PVDF membrane and the Western blot was developed with a GFP-specific antibody to confirm the presence of GFP-tagged PGI1 (FIG. 14B). 55=Nb clone CA17455 corresponding to SEQ ID NO: 15, used as trapper/stripper for PGI1, serves as a positive control.
(§2) Individual clones were isolated from the enriched sub-library by plating tenfold serial dilutions of the overnight-grown phage-infected E. coli TG1 cells in LB. 96 individual clones were picked and grown in a 96-well plate containing LB supplemented with 100 μg/mL ampicillin. Plasmids containing the Nanobody encoding genes were purified, sequenced and grouped into sequence families (Material and methods). A representative member of each sequence family was selected. Six different PGI1 specific Nanobodies, derived from four different sequence families (Nb clone CA17791 corresponding to SEQ ID NO: 46, CA17792-SEQ ID NO:47, CA17793-SEQ ID NO:48, CA17794-SEQ ID NO:49, CA17795-SEQ ID NO:50, and CA17796-SEQ ID NO:51) were selected based on their CDR3 sequences. Their encoding plasmid was transformed into the E. coli WK6 expression strain to express and purify each Nanobody of interest. The specificity of the PGI1-specific Nanobodies was confirmed by linking separate Nanobodies on NHS-agarose beads for co-immunoprecipitation assays. The beads that were functionalized with these PGI1-specific Nanobodies and incubated for an hour at 4° C. on a rotating device with either an EBY100 lysate expressing native (un-tagged) PGI1 or the lysate of the engineered yeast strain (GFP(+)12, H11) expressing PGI1 as a GFP-tagged protein. After washing, these beads were resuspended in SDS-PAGE loading dye and analyzed on SDS-PAGE (FIG. 14A). Separated proteins were also transferred to PVDF membranes and the Western blot was developed with a GFP-specific antibody to confirm the presence of the GFP-tagged PGI1 (FIG. 14B).

GFP-tagged PGI1 = target: T2, GFP-tagged PGI1 (Saccharomyces cerevisiae, UniProt P12709 2-554); test: co-immunoprecipitation, Nb coupled to NHS-agarose beads, lysate of the yeast strain expressing the GFP-tagged target, SDS-PAGE
T2 construct: Yeast GFP Fusion Collection strain; 88 kDa band; also called GFP-PGI1; Yeast GFP fusion collection GFP(+)12, H11; not shown: GFP tag
Method: as §1, §2

GFP protein = target: T3, GFP protein (Aequorea victoria (Water jellyfish) …, UniProt P42212 1-238 = GFP, biotinylated with the EZ-Link sulfo-NHS-LC-biotinylation kit for the BLI assay; unmodified in the NANEX selections); test: BLI (Octet), biotinylated GFP on streptavidin sensors saturated with CA12760, second step CA12760 + 2nd Nb
T3 construct: Purified GFP; also called wild type GFP; biotinylated GFP
Method: The binding properties of the newly discovered GFP-specific Nanobodies were analysed by a Bio-layer interferometry (BLI) on an OctetRed (molecular devices). Streptavidin-coated Octet® biosensors were used to capture biotinylated GFP (100 nM). Next, the picomolar GFP stripper (CA12760; SEQ ID NO:1) was allowed to bind to GFP until a plateau was reached. These CA12760-saturated biosensors were next incubated separately in solutions containing each newly discovered Nb (as indicated in the legend of the figure), supplemented with CA12760 Nb. Assays were performed in HEPES 25 mM pH 7.5, NaCl 150 mM supplemented with BSA 0.1% and Tween₂₀ 0.005% at room temperature.
Epitope analysis. […] For this we loaded the Streptavidin biosensor with biotinylated GFP, next we allowed CA12760 (SEQ ID NO:1), the GFP-stripper with picomolar affinity, to bind to GFP. After washing, this biosensor loaded with the GFP-CA12760 complex was incubated with the newly discovered Nbs.
Epitope mapping of GFP Nanobodies by Bio-layer interferometry (BLI). Streptavidin-coated Octet® biosensors were used to capture biotinylated GFP (100 nM). Unbound biotinylated GFP is washed off from biosensor by two washing steps (60 seconds in buffer). Next, Streptavidin-coated Octet® biosensors with GFP were first incubated for 400 seconds with 20 nM CA12760, the GFP stripper, washed briefly, followed by an incubation of 400 seconds in a premix of 20 nM CA12760 with the different Nbs to be tested. Data were analyzed on an OctetRed (molecular devices). All assays were performed in HEPES 25 mM pH 7.5, NaCl 150 mM supplemented with BSA 0.1% and Tween₂₀ 0.005% at room temperature.

[2] = target: T4, SSA1 (native, from EBY100 lysate) (Saccharomyces cerevisiae, UniProt P10591 2-642); test: co-IP, Nb on NHS-agarose beads, EBY100 yeast lysate, SDS-PAGE
T4 construct: mature; Endogenous untagged protein; also called YAL005C

GFP-tagged SSA1 = target: T5, GFP-tagged SSA1 (Saccharomyces cerevisiae, UniProt P10591 2-642); test: co-immunoprecipitation, Nb coupled to NHS-agarose beads, lysate of the yeast strain expressing the GFP-tagged target, Western blot anti-GFP
T5 construct: Yeast GFP Fusion Collection strain; also called Yeast GFP fusion collection GFP(+)10, E4; not shown: GFP tag
Method: Six SSA1-specific Nanobodies (60=Nb clone CA17560 corresponding to SEQ ID NO: 19, 61=CA17561-SEQ ID NO: 20, 62=CA17562-SEQ ID NO: 21, 63=CA17563-SEQ ID NO: 22, 64=CA17564-SEQ ID NO: 23, 65=CA17565-SEQ ID NO: 24) were characterized by co-immunoprecipitation assays. Each SSA1-specific Nanobodies was covalently linked to NHS-agarose beads. The beads that were functionalized with these SSA1-specific Nanobodies were incubated for an hour at 4° C. on a rotating device with either an EBY100 lysate or the lysate of the engineered Yeast strain expressing SSA1 (Yeast GFP fusion collection reference: GFP(+)10, E4) as a GFP-tagged protein. After washing, these beads were resuspended in SDS-PAGE loading dye and analyzed on SDS-PAGE (FIG. 6A). Separated proteins were transferred to a PVDF membrane and the Western blot (FIG. 6B) was developed with GFP-specific antibody to confirm the presence of GFP-tagged SSA1.

T1 sequence (P12709 2-554): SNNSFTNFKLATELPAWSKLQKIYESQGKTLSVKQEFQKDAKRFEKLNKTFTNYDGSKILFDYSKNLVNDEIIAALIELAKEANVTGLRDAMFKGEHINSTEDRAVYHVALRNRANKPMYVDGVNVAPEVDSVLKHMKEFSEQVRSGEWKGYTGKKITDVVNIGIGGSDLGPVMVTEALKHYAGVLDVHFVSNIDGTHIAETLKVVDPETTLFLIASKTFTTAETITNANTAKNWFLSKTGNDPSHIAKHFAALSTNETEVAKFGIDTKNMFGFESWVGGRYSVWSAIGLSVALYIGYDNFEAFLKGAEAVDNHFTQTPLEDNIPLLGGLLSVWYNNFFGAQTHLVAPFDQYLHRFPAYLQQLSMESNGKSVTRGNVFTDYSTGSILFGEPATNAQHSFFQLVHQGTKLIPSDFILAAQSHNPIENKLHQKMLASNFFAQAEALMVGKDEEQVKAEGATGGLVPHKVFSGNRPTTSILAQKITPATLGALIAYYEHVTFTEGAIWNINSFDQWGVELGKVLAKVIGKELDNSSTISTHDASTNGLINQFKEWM
T2 sequence (P12709 2-554): as above
T4 sequence (P10591 2-642): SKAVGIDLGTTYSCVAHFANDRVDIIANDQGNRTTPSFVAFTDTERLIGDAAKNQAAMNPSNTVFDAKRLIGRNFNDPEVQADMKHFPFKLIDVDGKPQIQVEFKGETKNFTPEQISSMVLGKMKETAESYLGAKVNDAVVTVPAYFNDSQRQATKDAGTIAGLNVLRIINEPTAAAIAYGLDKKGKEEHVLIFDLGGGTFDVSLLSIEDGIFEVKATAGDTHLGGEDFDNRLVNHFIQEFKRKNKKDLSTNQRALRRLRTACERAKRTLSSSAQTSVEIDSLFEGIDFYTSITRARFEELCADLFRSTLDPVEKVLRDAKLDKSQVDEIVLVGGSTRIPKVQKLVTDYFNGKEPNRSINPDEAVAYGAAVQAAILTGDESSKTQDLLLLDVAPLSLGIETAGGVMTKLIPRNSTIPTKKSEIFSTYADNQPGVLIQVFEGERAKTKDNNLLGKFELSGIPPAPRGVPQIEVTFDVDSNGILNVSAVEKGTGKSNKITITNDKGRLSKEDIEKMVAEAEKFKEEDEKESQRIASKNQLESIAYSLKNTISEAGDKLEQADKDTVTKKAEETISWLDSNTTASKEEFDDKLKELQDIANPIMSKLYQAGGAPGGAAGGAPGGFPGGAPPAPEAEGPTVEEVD
T5 sequence (P10591 2-642): as above

| Binder | binding result [1] | binding result (GFP-tagged PGI1) | binding result (GFP protein) | other results |
| --- | --- | --- | --- | --- |
| B1 | binds | binds | – | – |
| B2 | binds | binds | – | – |
| B3 | binds | binds | – | – |
| B4 | binds | binds | – | – |
| B5 | – | – | binds | – |
| B6 | binds | binds | – | – |
| B7 | binds | binds | – | – |
| B8 | – | – | binds | – |
| B9 | – | – | binds | – |
| B10 | – | – | binds | – |
| B11 | – | – | no binding | – |
| B12 | – | – | binds | – |
| B13 | – | – | – | binding result [2]: binds; binding result (GFP-tagged SSA1): binds |
| B14 | – | – | binds | – |
| B15 | – | – | binds | – |
| B16 | – | – | binds | – |
| B17 | – | – | – | binding result [2]: binds; binding result (GFP-tagged SSA1): binds |
